# According to the RNAGym collection of RNA variant scans (doi:10.7554/elife.80360):
# B1: CPEB3 Ribozyme (parent)
# chain: GGGGGCCACAGCAGAAGCGUUCACGUCGCGGCCCCUGUCAGAUUCUGGUGAAUCUGCGAAUUCUGCUGU
# Variants of: B1
# Assay: self-cleavage, relative activity (ratio to wild type); higher = more cleavage; co-transcriptional
row,Variant,self-cleavage
1,GGGGGCCACAGCAGAAGCGUUCACGUCGCGGCAUCUGUCAGAUUCUGGUGAAUCUGCGAAUUCUGCUGU [C33A C34U],0.489
2,GGGGGCCACAGCAGAAGCGUUCACGUCGCGGCACCUGUCAGAUUCUGGUUAAUCUGCGAAUUCUGCUGU [C33A G50U],0.893
3,GGGGGCCACAGCAGAAGCGUUCACGUCGCGGCACCUGUCAGAUUCUUGUGAAUCUGCGAAUUCUGCUGU [C33A G47U],0.961
4,GGGGGCCACAGCAGAAGCGUUCACGUCGCGGCGCCUGUCAGAUUCUGGUGAAUCUGCGAAUUCUGCUGC [C33G U69C],0.972
5,GGGGGCCACAGCAGAAGCGUUCACGUCGCGGCGCCUGUCAGAUUCUGGUGAAUCUGCGAAUCCUGCUGU [C33G U62C],0.358
6,GGGGGCCACAGCAGAAGCGUUCACGUCGCGGCACCUGUCAGAUUCUGGUGAAUCUGCGAAUUCUGCUGA [C33A U69A],1
7,GGGGGCCACAGCAGAAGCGUUCACGUCGCGGCGCCUGUCAAAUUCUGGUGAAUCUGCGAAUUCUGCUGU [C33G G41A],0.323
8,GGGGGCCACAGCAGAAGCGUUCACGUCGCGGCGCCUGUCACAUUCUGGUGAAUCUGCGAAUUCUGCUGU [C33G G41C],0.27
9,GGGGGCCACAGCAGAAGCGUUCACGUCGCGGCACCUGUUAGAUUCUGGUGAAUCUGCGAAUUCUGCUGU [C33A C39U],0.367
10,GGGGGCCACAGCAGAAGCGUUCACGUCGCGGCACCUGUAAGAUUCUGGUGAAUCUGCGAAUUCUGCUGU [C33A C39A],0.286
11,GGGGGCCACAGCAGAAGCGUUCACGUCGCGGCACCUGUGAGAUUCUGGUGAAUCUGCGAAUUCUGCUGU [C33A C39G],0.436
12,GGGGGCCACAGCAGAAGCGUUCACGUCGCGGCACCUGUCAGAUUCUGGUGAAUCUACGAAUUCUGCUGU [C33A G56A],0.758
13,GGGGGCCACAGCAGAAGCGUUCACGUCGCGGCACCUGACAGAUUCUGGUGAAUCUGCGAAUUCUGCUGU [C33A U38A],0.804
14,GGGGGCCACAGCAGAAGCGUUCACGUCGCGGCACCUGCCAGAUUCUGGUGAAUCUGCGAAUUCUGCUGU [C33A U38C],0.72
15,GGGGGCCACAGCAGAAGCGUUCACGUCGCGGCGCCCGUCAGAUUCUGGUGAAUCUGCGAAUUCUGCUGU [C33G U36C],0.531
16,GGGGGCCACAGCAGAAGCGUUCACGUCGCGGCGCCUGUCGGAUUCUGGUGAAUCUGCGAAUUCUGCUGU [C33G A40G],0.648
17,GGGGGCCACAGCAGAAGCGUUCACGUCGCGGCACCUGUCAGAUUCUGGUGAAUCUGCGGAUUCUGCUGU [C33A A59G],0.738
18,GGGGGCCACAGCAGAAGCGUUCACGUCGCGGCACCUGUCAGAUUCUGGUGAAUCUGCGUAUUCUGCUGU [C33A A59U],0.475
19,GGGGGCCACAGCAGAAGCGUUCACGUCGCGGCGCCUGUCAGAUUCUGGUGAAUCUGCGGAUUCUGCUGU [C33G A59G],0.516
20,GGGGGCCACAGCAGAAGCGUUCACGUCGCGGCGCCUGUCAGAUUCUGGUGAAUCUGCGUAUUCUGCUGU [C33G A59U],0.362

row,Variant,self-cleavage
1,GGGGGCCACAGCAGAAGCGUUCACGUCGCGGCGGCUGUCAGAUUCUGGUGAAUCUGCGAAUUCUGCUGU [C33G C34G],0.217
2,GGGGGCCACAGCAGAAGCGUUCACGUCGCGGCGUCUGUCAGAUUCUGGUGAAUCUGCGAAUUCUGCUGU [C33G C34U],0.671
3,GGGGGCCACAGCAGAAGCGUUCACGUCGCGGCGACUGUCAGAUUCUGGUGAAUCUGCGAAUUCUGCUGU [C33G C34A],0.253
4,GGGGGCCACAGCAGAAGCGUUCACGUCGCGGCACCUGUCAGAAUCUGGUGAAUCUGCGAAUUCUGCUGU [C33A U43A],0.311
5,GGGGGCCACAGCAGAAGCGUUCACGUCGCGGCGCCUGUCAGAUUCUGGUGAAUCCGCGAAUUCUGCUGU [C33G U55C],0.282
6,GGGGGCCACAGCAGAAGCGUUCACGUCGCGGCACCUGUCAGAUUCUGGUGAAUCUGCGAAUUAUGCUGU [C33A C63A],0.611
7,GGGGGCCACAGCAGAAGCGUUCACGUCGCGGCACCUGUCAGAUUCUGGUGAAUCUGCGAAUUUUGCUGU [C33A C63U],0.851
8,GGGGGCCACAGCAGAAGCGUUCACGUCGCGGCACCUGUCAGAUUCUGGUGAAUCUGUGAAUUCUGCUGU [C33A C57U],0.343
9,GGGGGCCACAGCAGAAGCGUUCACGUCGCGGCACCUGUCAGAUUAUGGUGAAUCUGCGAAUUCUGCUGU [C33A C45A],0.523
10,GGGGGCCACAGCAGAAGCGUUCACGUCGCGGCACCUGUCAGAUUGUGGUGAAUCUGCGAAUUCUGCUGU [C33A C45G],0.665
11,GGGGGCCACAGCAGAAGCGUUCACGUCGCGGCUCCUGUUAGAUUCUGGUGAAUCUGCGAAUUCUGCUGU [C33U C39U],0.932
12,GGGGGCCACAGCAGAAGCGUUCACGUCGCGGCUCCUGUGAGAUUCUGGUGAAUCUGCGAAUUCUGCUGU [C33U C39G],0.918
13,GGGGGCCACAGCAGAAGCGUUCACGUCGCGGCACCUGUCAGAUUCUGGUGAAUCUGCGAAUUCUGCCGU [C33A U67C],0.928
14,GGGGGCCACAGCAGAAGCGUUCACGUCGCGGCACCUGUCAGAUUCUGGUGAAUCUGCGACUUCUGCUGU [C33A A60C],0.346
15,GGGGGCCACAGCAGAAGCGUUCACGUCGCGGCACCUGUCAGAUUCUGGUGAAUCUGCGAAUUCUACUGU [C33A G65A],0.786
16,GGGGGCCACAGCAGAAGCGUUCACGUCGCGGCACCUGUCAGAUUCUGGUGAAUCUGCGAAUUCUUCUGU [C33A G65U],0.451
17,GGGGGCCACAGCAGAAGCGUUCACGUCGCGGCACCUGUCAGAUUCUGGUGAAUCUGCAAAUUCUGCUGU [C33A G58A],0.811
18,GGGGGCCACAGCAGAAGCGUUCACGUCGCGGCGCCUGUCAGACUCUGGUGAAUCUGCGAAUUCUGCUGU [C33G U43C],0.391
19,GGGGGCCACAGCAGAAGCGUUCACGUCGCGGCGCCUGUCAGAAUCUGGUGAAUCUGCGAAUUCUGCUGU [C33G U43A],0.299
